Source: IntAct's records for PubMed 19135888

B1: Cell division control protein 13 (Saccharomyces cerevisiae), P32797 (parent)
chain: MDTLEEPECPPHKNRIFVSSSKDFEGYPSKAIVPVQFVALLTSIHLTETKCLLGFSNFERRGDQSQEDQYLIKLKFKDRGSERLARITISLLCQYFDIELPDLDSDSGASPTVILRDIHLERLCFSSCKALYVSKHGNYTLFLEDIKPLDLVSVISTISTKSTNSSKHSSSELISECDLNNSLVDIFNNLIEMNRDEKNRFKFVKLIHYDIELKKFVQDQQKVLSQKSKAAAINPFFVPNRLGIPYIESQNEFNSQLMTLNVDEPTTDISNMGEEMHDSADPIEDSDSSTTSSTGKYFSSKSYIQSQTPERKTSVPNNWHDDDSGSKRKRKLSFHSPNASSIRKAISYEQLSLASVGSVERLEGKIVGMNPPQFASINEFKYCTLKLYFTQLLPNVPDKVLVPGVNCIEIVIPTRERICELFGVLNCQSDKISDILLLEKPDRISVEVERILWDNDKTASPGMAVWSLKNISTDTQAQAQVQVPAQSSASIDPSRTRMSKMARKDPTIEFCQLGLDTFETKYITMFGMLVSCSFDKPAFISFVFSDFTKNDIVQNYLYDRYLIDYENKLELNEGFKAIMYKNQFETFDSKLRKIFNNGLRDLQNGRDENLSQYGIVCKMNIKVKMYNGKLNAIVRECEPVPHSQISSIASPSQCEHLRLFYQRAFKRIGESAISRYFEEYRRFFPIHRNGSHLAKLRFDEVKHEPKKSPTTPALAEHIPDLNADVSSFDVKFTDISSLLDSSARLPRPQQTHKSNTLYSCEGRIIAIEYHASDLCFHITNELPLLQTRGLAPERVLQLHIITSKNFAYFFNRSSAYLQRQPLEEKYTQLAQFLGHSFKFNITSSLTLFPDTTVALQIWCPIECTFRELQQQLAHPKVAAAPDSGSLDCAINATVNPLRLLAAQNGVTVKKEEDNDDDAGAVPTS

Variants of: B1
Conditions: with cdk1_yeast CDC28, P00546
Chain of cdk1_yeast CDC28, P00546 (P00546 whole entry, looked up): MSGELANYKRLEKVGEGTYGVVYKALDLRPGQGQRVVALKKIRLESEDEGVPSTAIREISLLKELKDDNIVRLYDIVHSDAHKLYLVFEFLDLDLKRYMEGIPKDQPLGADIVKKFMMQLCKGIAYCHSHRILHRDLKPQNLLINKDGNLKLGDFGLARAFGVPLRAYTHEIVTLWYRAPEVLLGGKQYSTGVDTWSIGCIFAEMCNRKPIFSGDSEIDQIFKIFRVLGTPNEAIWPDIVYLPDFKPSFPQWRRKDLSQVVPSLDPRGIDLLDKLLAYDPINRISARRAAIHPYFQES

effect of a mutation on the interaction | Variant
decreasing interaction | T308A
disrupting interaction | T308A;S336A
